The results in this text go back to patent US20050118638A1 (RSR, published 2005).

Numbering of substitutions follows the chain as printed.

Test [1] has as its target T1, TSH receptor (detergent solubilised TSH receptor preparation) (UniProt P16473 21-764, limits assumed).
T1 construct: In some assays captured or labelled through MAb 4E31 F(ab)2; also called thyrotrophin receptor
As to the kind of experiment: 125I-TSH, TSHR coated tubes; 20 µg/ml. Here is the method:
(§1) In particular the MAb 4E31 reactive with the TSHR C terminus (10 μg/mL F(ab)₂ preparation in 0.1 M Na₂CO₃ pH 9.2) was added to plastic tubes (Nune Maxisorp, 200 μL per tube) and coating allowed to proceed overnight 4° C. After washing and post-coating (10 mg/mL bovine serum albumin) the tubes were washed again with assay buffer (10 mM Tris-HCl pH 7.8, 50 mM NaCl, 1 mg/mL bovine serum albumin, 0.1% Triton X-100). 200 μL of a detergent solubilised TSHR preparation was then added and incubated overnight at 4° C. followed by aspiration and washing steps. Thereafter, 20 μL of “start” buffer (10 mM Tris-HCl pH 7.8, 50 mM NaCl, bovine serum albumin 1 mg/mL, 6 mM NaN₃, 1% Triton X-100) was added to the TSHR coated tubes followed by 100 μL of purified MAb IgG or patient sera and incubated at room temperature for 2 hours with gentle shaking. […] The tubes were then washed twice with 1 mL of assay buffer, aspirated and counted in a gamma counter.

Test [2] concerns the target T1, TSH receptor (detergent solubilised TSH …). Description: solubilised TSHR, PEG method; IgG 100 µg/ml; competitor 125I-16E5 Fab.
For test [3] the target is unchanged. Description: 125I-TSH, TSHR coated tubes; 2 µg/ml. The method, then:
as §1

For test [4], the target named is human TSHR expressed on Chinese hamster ovary (CHO) cells (human, UniProt P16473 21-764). Description: cell-based or functional assay.
Test [5] addresses TSH receptor of isolated porcine thyroid cells (porcine, UniProt Q8SPP9 22-764). Description: cell-based or functional assay.
The target in test [6] is T1, TSH receptor (detergent solubilised TSH …). As to the kind of experiment: 125I-TSH, TSHR coated tubes; tested at 10 µg/ml. The method, then:
as §1

Chain of human TSHR expressed on Chinese hamster ovary (CHO) cells (P16473 21-764): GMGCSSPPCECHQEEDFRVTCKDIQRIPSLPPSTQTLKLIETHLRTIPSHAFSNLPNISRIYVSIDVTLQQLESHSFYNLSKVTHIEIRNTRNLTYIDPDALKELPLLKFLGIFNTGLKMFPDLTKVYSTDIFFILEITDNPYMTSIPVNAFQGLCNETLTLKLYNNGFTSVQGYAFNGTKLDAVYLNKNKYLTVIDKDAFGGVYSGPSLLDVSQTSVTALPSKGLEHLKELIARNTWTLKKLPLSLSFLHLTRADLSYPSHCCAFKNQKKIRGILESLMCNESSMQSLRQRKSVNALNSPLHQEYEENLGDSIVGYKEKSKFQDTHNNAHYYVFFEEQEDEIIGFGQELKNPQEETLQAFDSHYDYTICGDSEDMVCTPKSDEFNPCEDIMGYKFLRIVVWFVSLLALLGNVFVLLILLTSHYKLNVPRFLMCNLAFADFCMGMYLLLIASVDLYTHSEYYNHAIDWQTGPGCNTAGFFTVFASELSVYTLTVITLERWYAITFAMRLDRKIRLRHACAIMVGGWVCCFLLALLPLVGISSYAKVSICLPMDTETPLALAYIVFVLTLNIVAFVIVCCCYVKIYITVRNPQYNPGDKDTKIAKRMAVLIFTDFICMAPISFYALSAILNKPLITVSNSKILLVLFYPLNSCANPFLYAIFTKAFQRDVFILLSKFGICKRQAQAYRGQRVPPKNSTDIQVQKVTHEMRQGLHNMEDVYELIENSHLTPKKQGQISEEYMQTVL
T1 sequence (P16473 21-764 limits assumed): as the sequence (P16473 21-764) above
Chain of TSH receptor of isolated porcine thyroid cells (Q8SPP9 22-764): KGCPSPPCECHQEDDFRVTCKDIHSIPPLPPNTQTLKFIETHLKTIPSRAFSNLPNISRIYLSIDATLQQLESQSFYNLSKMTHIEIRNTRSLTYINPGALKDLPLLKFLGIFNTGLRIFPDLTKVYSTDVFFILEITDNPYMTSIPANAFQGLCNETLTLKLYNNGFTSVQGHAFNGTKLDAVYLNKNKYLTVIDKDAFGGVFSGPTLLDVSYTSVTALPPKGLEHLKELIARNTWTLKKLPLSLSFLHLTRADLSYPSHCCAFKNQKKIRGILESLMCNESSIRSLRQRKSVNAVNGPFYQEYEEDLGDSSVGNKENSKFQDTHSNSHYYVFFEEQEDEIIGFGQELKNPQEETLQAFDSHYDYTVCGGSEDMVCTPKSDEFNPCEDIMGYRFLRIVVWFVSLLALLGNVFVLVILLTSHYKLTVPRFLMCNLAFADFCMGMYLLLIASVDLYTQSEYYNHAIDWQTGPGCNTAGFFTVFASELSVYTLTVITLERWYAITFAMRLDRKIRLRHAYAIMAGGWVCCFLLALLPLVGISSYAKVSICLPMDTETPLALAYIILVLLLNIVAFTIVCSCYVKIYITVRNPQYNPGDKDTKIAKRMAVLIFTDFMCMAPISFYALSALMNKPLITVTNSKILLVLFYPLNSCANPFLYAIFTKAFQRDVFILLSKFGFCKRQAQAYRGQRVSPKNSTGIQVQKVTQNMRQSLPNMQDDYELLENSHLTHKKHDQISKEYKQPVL

B1: 16E5 IgG (antibody, V domains shown, not shown: a dimerising Fc or GST)
VH: DVQLVQSGPELVKPGASVKMSCKASGYSFTGYNMHWVKQSHGKSLEWIGYIDPYNGATSYNQKFEDKATLTVDKSSSTAYMQLNSLTSEDSAVYYCARRWDWDPYAMDYWGQGTSVTVSS
VL: DILLTQSPAILSVSPGERVSFSCRASQSIGTSIHWYQQRTNGSPRLLIKYASESISGIFSRFSGSGSGTDFTLTINSVESEDIADYYCQQSNRWPLTFGAGTKLELKR
notes: mouse monoclonal IgG; also called MAb 16E5
As for B1, in test [1], the “% inhibition of TSH binding” value is 83.3%. For the same molecule, the “% inhibition of 125I-16E5 Fab binding” value in test [2] worked out at 70.4%. In addition, the “% inhibition of TSH binding” value in test [3] turned out to be 73.6%. Further, the “Stimulation (%) of cyclic AMP, CHO cells expressing human TSHR; 20 µg/ml, diluted 1:10” value (“Stimulation (%) of cyclic AMP … diluted 1:10” below) in test [4] was 850%. In test [5], the “Stimulation (%) of cyclic AMP, isolated porcine thyroid cells; 2 µg/ml” value (“Stimulation (%) of cyclic AMP … 2 µg/ml” below) worked out at 269%; the “Stimulation (%) of cyclic AMP, isolated porcine thyroid cells; 20 µg/ml” value came out at 332%; the “Stimulation (%) of cyclic AMP, isolated porcine thyroid cells; 200 µg/ml” value (“Stimulation (%) of cyclic AMP … 200 µg/ml” for short) is 466%.

B2: 14D3 IgG (antibody, V domains shown, not shown: a dimerising Fc or GST)
VH: B1 VH with L4M, V5Q, S7P, V18L, N55S, D66G
VL: B1 VL with D1N, L4M, S22A, F59P, T74S, S91T
notes: mouse monoclonal IgG; also called MAb 14D3
On to B2, for which the “% inhibition of TSH binding” value in test [1] was determined as 76.4%. Besides, the “% inhibition of 125I-16E5 Fab binding” value in test [2] came out at 67.6%. The “% inhibition of TSH binding” value in test [3] turned out to be 61%. Also, the “Stimulation (%) of cyclic AMP … diluted 1:10” value in test [4] turned out to be 908%. For the same molecule, in test [5], the “Stimulation (%) of cyclic AMP … 2 µg/ml” value is 323%; the “Stimulation (%) of cyclic AMP, isolated porcine thyroid cells; 20 µg/ml” value was 351%; the “Stimulation (%) of cyclic AMP … 200 µg/ml” value was determined as 557%.

B3: 16E5 Fab (Fab, V domains shown)
VH: B1 VH
VL: B1 VL
notes: papain Fab of the mouse MAb
B3: the “% inhibition of TSH binding” value in test [6] stood at 53%. The “Stimulation (%) of cyclic AMP … 200 µg/ml” value in test [5] was 425%.

B4: 17D2 Fab (Fab, V domains shown)
VH: B1 VH with L4I, V5Q, G31A, S40T, N55S, N61H, E65K, D66G, Q82R
VL: B1 VL with D1S, I2V, L3E, L4M, T5S, V19I, E53A, F59P, T74S, R93S
notes: Fab of the mouse MAb
Regarding B4, the “% inhibition of TSH binding” value in test [6] came to 45%. In test [5], the “Stimulation (%) of cyclic AMP … 200 µg/ml” value turned out to be 274%.

B5: 14D3 Fab (Fab, V domains shown)
VH: B1 VH with L4M, V5Q, S7P, V18L, N55S, D66G
VL: B1 VL with D1N, L4M, S22A, F59P, T74S, S91T
notes: Fab of the mouse MAb
For the molecule B5, the “% inhibition of TSH binding” value in test [6] was 64%. Also, the “Stimulation (%) of cyclic AMP … 200 µg/ml” value in test [5] worked out at 648%.

B6: 17D2 IgG (antibody, V domains shown, not shown: a dimerising Fc or GST)
VH: B1 VH with L4I, V5Q, G31A, S40T, N55S, N61H, E65K, D66G, Q82R
VL: B1 VL with D1S, I2V, L3E, L4M, T5S, V19I, E53A, F59P, T74S, R93S
notes: mouse monoclonal IgG
Turning to B6, the “% inhibition of TSH binding” value in test [1] amounted to 81.3%. Besides, in test [2], the “% inhibition of 125I-16E5 Fab binding” value amounted to 69.2%. Also, the “% inhibition of TSH binding” value in test [3] was determined as 73.7%. Moreover, in test [5], the “Stimulation (%) of cyclic AMP … 2 µg/ml” value worked out at 134%; the “Stimulation (%) of cyclic AMP, isolated porcine thyroid cells; 20 µg/ml” value was determined as 207%; the “Stimulation (%) of cyclic AMP … 200 µg/ml” value stood at 377%.

B7: 2B4 IgG (antibody, V domains shown, not shown: a dimerising Fc or GST)
VH: DVQLQQSGTVLARPGASVRMSCKASGYSFTRYWIHWLKQRPGQGLEWIGAIFPGNRDTSYNQRFKGKAEVTAVTSASTAYLDLSSLTNEDSAVYYCTRWPYYGSIYVNFDYWGQGTTLTVSS
VL: DIVMTQSPLSLPVSLGDQASISCRTSQNLVHRNGNTYLHWYLQKPGQSPKLLIYKISNRFSGVPDRFSGSGSGTDFTLKISRVEAEDLGVYFCSQGTHVPPTFGGGTKLEIKR
notes: mouse monoclonal IgG; also called 2B4 MAb
Consider B7, for which, in test [3], the “% inhibition of TSH binding” value is 69.9%. Also, in test [4], the “Stimulation (%) of cyclic AMP … diluted 1:10” value came out at 111%. Moreover, in test [5], the “Stimulation (%) of cyclic AMP … 2 µg/ml” value was determined as 116% and the “Stimulation (%) of cyclic AMP, isolated porcine thyroid cells; 20 µg/ml” value is 100%.

B8: 4D7 IgG (antibody, V domains shown, not shown: a dimerising Fc or GST)
VH: DVQLKHSGPELVKPGASMKISCKASGYSFTGYTMNWVKQSHGKNLEWIGLINPYTGGTNYNQKFKGKAKLTVDKSSSTAFMELLSLTSEDSAVYYCARDGNLDYWGQGTTLTVSS
VL: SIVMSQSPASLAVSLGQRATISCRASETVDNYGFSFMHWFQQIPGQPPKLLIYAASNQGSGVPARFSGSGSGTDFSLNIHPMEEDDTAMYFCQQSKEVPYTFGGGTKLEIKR
notes: mouse monoclonal IgG; also called Mab 4D7
Consider B8, for which the “% inhibition of 125I-16E5 Fab binding” value in test [2] worked out at 24.2%. In test [5], the “Stimulation (%) of cyclic AMP, isolated porcine thyroid cells; 20 µg/ml” value came out at 31% and the “Stimulation (%) of cyclic AMP … 200 µg/ml” value turned out to be 259%.

B9: 3C7 IgG (antibody, V domains shown, not shown: a dimerising Fc or GST)
VH: B8 VH with E46D, T55N, N59S, N61D, K69T, F80Y, N101L, L102M, T110S, L111V
VL: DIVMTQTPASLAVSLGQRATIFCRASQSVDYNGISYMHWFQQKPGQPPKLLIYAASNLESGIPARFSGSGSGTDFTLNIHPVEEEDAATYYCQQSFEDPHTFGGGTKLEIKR
notes: mouse monoclonal IgG
Take B9: the “% inhibition of 125I-16E5 Fab binding” value in test [2] amounted to 17%.

B10: 3B3 IgG (antibody, V domains shown)
VH: DVQLQQPGAELVKPGASVKLSCTTSGVNIKDTYMHWMKQRPEQGLEWIGRIDPANGNTKYDPKFRGKATITADTSSNTVYVQLRSLTSEDTAVYYCAYDGYWGQGTLVTVSA
VL: NIVMTQTPASLAVSLGQRATISCRASESVDSYGNNFMHWYQQKPGQSPRLLIYRASNLESGIPARFSGSGSRTDFTLTTNPVEADDVATYYCQQSHKDPLTFGAGTKLELK
For the molecule B10, in test [5], the “Stimulation (%) of cyclic AMP, isolated porcine thyroid cells; 20 µg/ml” value is 37% and the “Stimulation (%) of cyclic AMP … 200 µg/ml” value stood at 34%.

B11: 3B3 Fab (Fab, V domains shown)
VH: B10 VH
VL: NIVMTQTPASLAVSLGQRATISCRASESVDSYGNNFMHWYQQKPGQSPRLLIYRASNLESGIPARFSGSGSRTDFTLTTNPVEADDVATYYCQQSHKDPLTFGAGTKLELKR
On to B11, for which the “Stimulation (%) of cyclic AMP … 200 µg/ml” value in test [5] was 42%.
